Source: a protein production outcome set (Wang et al. 2014)

Assay: label from the status in PepcDB records

Sequence	protein production
MRLPGSGYSYTVIQSKNNYSQKSSFGISFVILSRGTKIFREDLFEFLSNFDFIREIISIEKQSNRSSLQFISESYGKLKFILLSDDLNSGEKVNLAMKESSCDFVFVLQSDMYLLNPFWIPNIFDEIVKKNVLLVGGEFFDKEEEMIPSIFLPSIDKKQKFKVILVNSEKDYEKTLITMDYCGLYSKEKFLQLGGFDARIQNEYFQRIDFGLRAIYFGEHVYIYRKLRIQYTALNSPENLTKSKSFLIFLLKNYVPIFVGNGVVFSFLRFCKICLKYKINPFLFQKEFKEIKGEITKNSLRFKGDLKSAIELWENDIID	failed
MLSNGKCRNNKNQVNGSLSPKMFYMRINDQIVTKYHKILTKKIREVVGTLQQPWESRRIKQAPQQPQETTSATITCDRSHTNYDLCSINGSCNLDLKTGTLTLMDPTSAPLVEKIRPYPKKADNWIMPRIRELTLTSGPLGLPRSCDITHDLPAIVFSAGGYTGSIYHDLMDGFIPLFITANSVYPDRDFIPVVVNAKEWWMPKYIDILGTFSKHKPILLLDKESVATTHCFTSAIVGLITHWPMTIDPTQIPNSKSLVDFHNLLEKAFTTNISTPKTHKPRLMLVSRYGNIGRVILNEQEIKEMLEDVGFEVIIFRPSKTTNLKEAYKLIKSSHGMVGVHGAALTHLLFLRPGSIFVQVVPLGLGWASKPCYESPAKTMKLEYLEYKVNVEESSLIEKYNRDDLVLKDPIAYRGMDWNATKMKVYLKEQDVSLDVNRFRKHMNEAYKKAKIFMDING	failed
MNVLLGSVVIFATFVTLCNASCYFIPNEGVPGDSTRKCMDLKGNKHPINSEWQTDNCETCTCYETEISCCTLVSTPVGYDKDNCQRIFKKEDCKYIVVEKKDPKKTCSVSEWII	not failed
RDITARVQAEENKRRLAEVVEANPDPVLFIQPGGAVTYLNPAARRTLGLGDGQAMPPLAAILSAAVLDSLQREGWDRAEHSGRWNIEARLQPPAGGASVPVSLMLLAHRAASGERFYSLVAHD	failed
MVGLADVAVLYSGGKDSNYALYWALKSGLRVRYLVSMVSENEESYMYHTPNVELTSLQARALGIPIIKGFTKGEKEKEVEDLKNVLEGLKVDGIVAGALASRYQKERIENVARELGLKVYTPAWEKDPYQYMLEIIKLGFKVVFVAVSAYGLNESWLGRELNYKNLEELKKLSEKYGIHIAGEGGEFETFVLDMPFFKAKIVIDDAEKFWDGLSGKFIIKRAHLEWK	not failed
MDPITHGALGAACAQAALGKYDKRIPWQAGALAGMAPDLDVFIRFSQEPLSLEQWHRYLTHSLMFIPIGGLIVALFLLCFSQYRQYWKITIGASLVGYATHCLLDSLTSYGTVLFWPWSDSRISWDIISIIDPVFTLPLLLGTAWSVIYQNQKAVIASLFFCILFLIFNTILHNRAVDGIHQYATTNNFKINHPRALPKLASSTYWRIIAKQQDCLIIAEAKTSLFYPTTIRLIRQALSFNESMIPFALSSGQKSDLATFHWFTDGFLIVANKNPLILADARYTIDDNPIFSLWGIEILPGQEHINKLSLPKINEYCESPDSERYKEDGLN	failed
MTFSSKLKSFCSRYFSSHEKDKYKALMKQKLLNPLSSSSPNYDEMIQENFKPHWIIGIDPNLSGALAVLKFDDKGSCSAQVNPY	failed
MKFESYDLAPGIKKSLAEAGFNRPTDIQFKSIPPILAGEDVLAIAQTGTGKTAAFVIPVLNTLINVKKSEHTDISCLVMAPTRELAVQISEVFKKIGAYTRLRTVCITGGVEQEAQIAAADYGIDILVATPGRMFDLIYQKHIKITRVKILVLDEADHMLDLGFIKDIQDVKKFLPARHQTLFFSATINEEIKKLAYSLVKNPIRIQIAPKDRVSKNITHSVAFIGMDDKRFFLERLLKEHPESKVIVFVRTQVRADRVQAAMERVGLKSVTMHGGKEQQARDAAMDAFKNGTVHVLIATDISARGIDIAGVEYVVNYDMPEVAENYVHRVGRTGRGVSKGFAISFCSMEEKPVLDEVEEFLGKEINVIEITGKDYDATLDLTEDVNDNWKALLKEADAETTKKYVPKKKKKK	failed
AAVLTQDKNTPTYGPANGKVTVIEFFDYQCVYCSRLAPVMEQVIKAHPQTRFAFKEWPIFGGRWESSLEAAKTGLQIYQQKGADAYLAYHNGIYATGHNEGKLTTADIQQQAKKAGFDAKKAADVEPVLQSINDLAQEIGLSGTPGVIVMPTTGATEASITVFPGLADKASLEAAIKKAGG	failed
MDIEVDIIEFKVPLENNKTIFIWDIQPTFTEAYIYESLWSVYSAFGDLYLLKVCPNATVAEPGFYALVKFYSSAQASKAQRATDKQCLFQSSPLKVRLSTKQNLSFYSSKPLCLSKCHNLANHYLGFGGWTTRIVTLKDLSNCVDAGCQEETGDQGVLLKYGCIMELSFPHHGMSCQGVGVAEEVLDSDQDPEEKLRKRGALMKRAKDKAMEVAFEKVLLLILGNGKVAIEIKIDPDEIVPEENSERVIKVNDISWTHIESADSNAEEDFLWDLTEDLPY	failed
LAALCPVAVPSGVQIYTIDGPLFFGAAATFERTLAGLHDQAEAVIFRLGRVPFADATAMHALDDVVRHFRQRHIEVRVCEANPRVAHKLREFGLLARIGQQDASISVLDALAELAPQPGTQVQAEAS	failed
MSSGKDFFVHSHALCESENIGKDSRVWAFAHILPGARLGSECNVCDNVFIENDVIIGDRVTLKCGVQVWDGITIEDDVFIGPNATFTNDLFPRSKVYPQTFARTIIRKGASLGANCTILPGITIGINAMVGAGAVVTRSVPPNAIVVGNPAKIIGYVDAKPVNANSETRAEQKAPGVTATSVKNVTLHTMNEVADIRGSLSAGEFERSVPFKTERYFLVYDVPTAETRGEHAHRICHQFLVAVKGSVHVVADDGVNREEFILDKPNQGIHLPPMTWGIQYRYSQDAVLLVFASHYYDAGDYIRNYEEFKSLIANAELEHHHHHH	not failed
MGTKERILEVSKELFFEKGYQGTSVEEIVKRANLSKGAFYFHFKSKEELITEIIERTHKKIISLFEENKEKTPEELLEMFLEVLYREKKVVYIFLFDLLCSEKFRNIYFEKIEDAKRRFEKFLEKHFPSKAEILSEIILGFLRQLILHYVIKEERELPFLKEKLREGLKLIFEGVKKCG	not failed
MTIWLLQLVLVIALCNLCGRLAERLGQCAVVGEIAAGLLLGPSLFGVIAPSFYDLLFGPRTLSAMAQVGEVGLILLMFQIGLHMELSETLRGKRWRIPVAIAAGGLIAPAAIGMIVAIVSKDTLASDVPALPYILFCGVALAVSAVPVMARIIDDLALGAMVGARHAMSAAMLTDALGWMLLATIASLSSGPGWAFAHMLVSLLVYLVLCALLVRFVVRPVLARLASTAHATRDRLAVLLCFVIASALATSLIGFHSAFGALAAALFVRRVPGVAKEWRDNVEGFVKLVLMPVFFACAGLHASVGTIDDAASWMWCGVFLVGGFIGKFGGSYLGARGTGLAPHDAMLASSLMNTRGLMELIVLSIGLQMQILPPKVYTILVVFALVTTALTAPLVRFTLRMQTRAMSQQAA	failed
SLSEDKMDLYLQQGMYGPLETKPDERHLFLGSLRERVVLALTKGQVLRSKPYKEAEHELKNSHNVTLLINGELQYQSYSSYIQMASRYGVPFKIVSDLQFHTPLGIVIAADIAVNRELIYIQDDIYNRSVLKS	not failed
MLDTYGRKYVNPIIDLGANTLLKLRLTPNGVSIIALIIGVLSSVFLYFDKLILSVVFLWISGYLDSVDGAMARKKNLTSPFGTLLDITFDRIVELSIIFVLALKFQNSRLYLLILTMMILISMTIFLTVGALAQNNGMKSFRYQAGLAERSEGFICFSLMILLSSIKLNLVTNIFSLIIFITIIQRALEAKRLLK	failed
MSDRDSWISNLGFVLAAVGGAAGLGNIWRFPWLTAGNGGSAFLIVYLLVVVGIGVPGLLAEFVLGRCGRQTPTAALRSLTGSRWGSWLGAFNVLTTLVILSFYSVVGGWILRYTLVSPVGTYFGQPQQYFGAMSFGLEAVAFHLLFLGIVAAIVFFGISNGIERVSKVMLPGVVIILLGLAVWTATQPGTAAGYAFYLSFDAEYLAANFLSVIGPAAGQALFTLSLGAGVMLTYASYLDDNASLPRDTLVIAVSNTFIGVLAGLVVIPLLFSQGVDPGQGGPGALFVALATAFATLPGGELVATAFFVTVLMAAVTSGISLLETPVATLVDSFGVPRRRATVLVSVLLAATGSGLALTSSVFQFVSGTLADLMLTVGLFAFTVIVGWLLRGDALAEFRAGTARFEWLAKPWLLTVSWVLPVVVLFLLTNTLASLAGISVGLGGRVIIAVIGTVALAVVVRNGSRTDRLSSH	failed
VEPQSQALLHAQPIISIRVWGVGRDSGRERDFAYVARDKLTQMLKCHVFRCEAPAKNIATSLHEICSKIMAERRNARCLVNGLSLDHSKLVDVPFQVEFPAPKNELVQKFQVYYLGNVPVAKPVGVDVINGALESVLSSSSREQWTPSHVSVAPATLTILHQQTEAVLGECRVRFLSFLAVGRDVHTFAFIMAAGPASFCCHMFWCEPNAASLSEAVQAACMLRYQKCLDARSQASTSCLPAPPAESVARRVGWTVRRGVQSLWGSLKPKRLGAHTP	failed
MNTRNFSLPQLQNLPIEEARIVADALAVHATSRQIDSAASKLAALAEAGLKGDRQAYAAYQQLLYVLSLSDDVATAQTRRWLARAIYRVEERFMPAADLSRALSEEDFQKRLEQEIAAQSRERHPMSQYVFSGSASRAQLQVFLRHQWFRTFRLYRDAADLLVNLTDVDEAAALARYLYGELGEEDEKGSHPRLLAKLLEAIGLEADFQAVSTMPEEIAYLNNRARAFRHAEVGWGLAVFYITELVVPGNHEKLYRALLQAGLSEDQAEYYKVHISLVPPRAKREWQLIARRIPDVQFQNAFLTSLSQHFRVERAYYDAIWEEMQSVK	not failed
MPLRLPPMLPSVDTSEELDAMVRDEALLRPAAQDLCAHLGLTGARLVRFDDGSLPVYAVGGTLVLKLFPGFEAAEGVREARVLSHLWGQLPVPTPRLHAGEMYKNGWRYVLMSRLPGVSLSTAWSRIPAVEQDRIVDEAAETLAALHSVDWKPLADVVGPADWGTFLRRQRAGVLEHHRAAGLPKPWLDQIPGFLDAVRLPASGERVLLHTEFMREHLTVDPQDGWRLTGLFDFEPAMIGDPAYDFVSVGLFMSRGDPRLLRRFYQAYGRPPHDPYQLLAYTLLHVYSDLAWYLREMPAPPHPRLDALAETWFGTDG	failed
MRRNTALTRIMASGVAAIMLCAGGTFTVNAAEEEPVKADVSVKAIQGLSDDFIGGMDVSSMLSLEESGVTFKNANGEVEDLFTLLKESGVNYVRLRVWNDPFTADGQGYGGGNVNADRALTMAKRATAAGLKVLVDFHYSDFWADPSKQQVPKAWKSFEGDADKTADTVYDYTKQTLTTFKQAGVDVGMVQVGNETTAKIAGISGWDGMSKVFSAGSKAIREVLPEAKVVIHFTNPEKAGTYATYAKQLSNHNVDYDVFASSYYPFWHGTTENLTSVLKNVASTYKKDVMVAETSWAYTLDDGDDDSNTVPSKVTADNLKKYDISPQGQADEIRAVAEAVNNIGDNDGDGENDGLGVFYWEPAWVPVGTGGKDNAELVDTWNKYGGGWATEAAGEYDPNDAGLYWGGSGVDNQALFDFDGKALASLPTFKYIHTGAVTDHVFTKIDPVEITATDSDSIDAIKAQLPSEVAAHYQDGVDETETVTWQSAALDWIRGAGTYTITGTTNAGHDVTVTVTVTATPAKDYVTDGSFENAENDKNWTIAGTGASITEDSGNAADGKRALKFWASDAYSFSATQTITGLEPGEYVLTAMSQGAAADNAAITDGVALSATTGGKTTSDALELNGWVKFDTATVPVTVGADGTATITITGNLPADAWGNVDKVSLVKKTETPVKPSTENLDKAVAEAGKINRDEYTNESLAKLDQALAAADVLLAGSTYTEQDVNDVIKLVADAIAGLAQKEVSSLTVTPSKTTYQVGDAIDADHDLKVVGNYSAGMGNVTLSADQFTLDYDFSAPADAAKVTVTLKSNPNVTETYTVAVTARAEGGSGNGSDGAGNGGATINPDTGEGDKTNGANGDKITGVLSNTGSAVTAVGLAVVVLGVAGGVSLALRRKRS	failed
MADTHPLVTVETIVLVGLGGFAGSNLRYFVGLFFPGLQGTLLVNVCGSFALGVLVYEGLQVGALASETKLAASTGFISSFTTYSTFAVETVLTPEWAVANVVGSYALGFAGVLVGREVVRLFAGGGQ	failed
